From the supplement of paper PMC10724198
± gives the standard deviation of the averaged measurements.

What follows are sequences tested on Saccharomyces cerevisiae (assay: protein stability index of tFT-peptide fusion (C-terminal peptide) (PSI (0-1 scale)); higher = more stable (slower turnover)). Settings: genetic background: wild type; temperature: 30 C.
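Further: PSI is a weighted mean of sequencing reads over stability bins, variants kept only with over 10 reads, mCherry proximal and sfGFP distal, peptide attached via GGGS linker.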

| Sequence | protein stability index |
| --- | --- |
| PPLSVLPFRFIL | 0.575 ± 0.048 |
| PPLTHASPLHLI | 0.585 ± 0.021 |
| PPLTRRSTLMSY | 0.591 ± 0.042 |
| PPLVPPTPAFPP | 0.623 ± 0.028 |
| PPNLLPPLSPSL | 0.678 ± 0.08 |
| PPPAAPPSSPLL | 0.765 ± 0.071 |
| PPPAPLPPRSSS | 0.638 ± 0.086 |
| PPPAPPLTFGHV | 0.6852 ± 0.0031 |
| PPPAPRPPASPP | 0.69815 ± 0.00052 |
| PPPAPRTPPLLP | 0.736 ± 0.029 |
| PPPDPPRHGRPE | 0.684 ± 0.035 |
| PPPDRLPPAHLP | 0.721 ± 0.029 |
| PPPFLPLCFPPL | 0.691 ± 0.032 |
| PPPFPPPPLFPL | 0.714 ± 0.032 |
| PPPGPPAVANRL | 0.701 ± 0.072 |
| PPPGPSPPPSPH | 0.683 ± 0.074 |
| PPPGPSRRPAAL | 0.726 ± 0.017 |
| PPPHPHPFSLAL | 0.691 ± 0.017 |
| PPPHPLALPPPP | 0.74 ± 0.03 |
| PPPHPPPPLPPP | 0.617 ± 0.01 |
| PPPHPPPPPLPS | 0.635 ± 0.021 |
| PPPHPPRPPVPR | 0.697 ± 0.016 |
| PPPHRPPPRPPR | 0.697 ± 0.0094 |
| PPPHSPLPAPPR | 0.76 ± 0.086 |
| PPPLASLSPASP | 0.624 ± 0.05 |
| PPPLATPTPTRP | 0.688 ± 0.17 |

| Sequence | protein stability index |
| --- | --- |
| PPPLLPPHPPGL | 0.701 ± 0.0096 |
| PPPLLPPLDAPS | 0.721 ± 0.083 |
| PPPLLSPAFFLP | 0.727 ± 0.053 |
| PPPLPGSLLPLP | 0.72349 ± 0.00037 |
| PPPLPPLPTALS | 0.693 ± 0.0036 |
| PPPLPPRMPPPF | 0.72 ± 0.036 |
| PPPLPRSPPPPF | 0.74 ± 0.021 |
| PPPLPSSPSPLL | 0.679 ± 0.022 |
| PPPLSLTPPFLY | 0.673 ± 0.074 |
| PPPLSPPTPPPP | 0.674 ± 0.049 |
| PPPLSSPGPPPL | 0.704 ± 0.014 |
| PPPLTPSPPPPP | 0.663 ± 0.021 |
| PPPLTYPTSPPS | 0.661 ± 0.019 |
| PPPNLSSGVPFI | 0.7051 ± 0.0025 |
| PPPPALWPPPSP | 0.735 ± 0.013 |
| PPPPASPPHAPP | 0.653 ± 0.07 |
| PPPPFPLPSPSL | 0.655 ± 0.022 |
| PPPPGKTDRPSH | 0.695 ± 0.055 |
| PPPPGPGSAPPP | 0.59 ± 0.065 |
| PPPPGPPPLPLP | 0.764 ± 0.058 |
| PPPPGSKPPPSP | 0.722 ± 0.028 |
| PPPPHPPFPPRF | 0.722 ± 0.047 |
| PPPPHPPPSLRA | 0.67716 ± 6e-05 |
| PPPPHRSHLPHS | 0.697 ± 0.03 |
| PPPPLPPAPPLP | 0.6607 ± 8.2e-05 |
| PPPPLPPRPSPP | 0.71 ± 0.074 |

| Sequence | protein stability index |
| --- | --- |
| PPPPLPSFPSSS | 0.858 ± 0.062 |
| PPPPLTPPHLSP | 0.713 ± 0.039 |
| PPPPPAPLPSSL | 0.671 ± 0.02 |
| PPPPPCSPPSPP | 0.681 ± 0.025 |
| PPPPPHPPPHTR | 0.678 ± 0.017 |
| PPPPPLHSSPWL | 0.737 ± 0.14 |
| PPPPPLLLPPPA | 0.651 ± 0.038 |
| PPPPPLLTRPLP | 0.699 ± 0.081 |
| PPPPPLPRSSLS | 0.6968 ± 0.0041 |
| PPPPPPAPPSPA | 0.726 ± 0.051 |
| PPPPPPHPLLST | 0.708 ± 0.073 |
| PPPPPPLFPSPP | 0.772 ± 0.13 |
| PPPPPPLHATPL | 0.6969 ± 0.0065 |
| PPPPPPLSPCPS | 0.704 ± 0.099 |
| PPPPPPLSRTST | 0.723 ± 0.082 |
| PPPPPPPALPSL | 0.6668 ± 0.0034 |
| PPPPPPPAPPPC | 0.7243 ± 0.0033 |
| PPPPPPPDPVPP | 0.645 ± 0.039 |
| PPPPPPPHPPHL | 0.728 ± 0.031 |
| PPPPPPPLVPPS | 0.595 ± 0.036 |
| PPPPPPPPCGTP | 0.633 ± 0.014 |
| PPPPPPPPPCSP | 0.7052 ± 0.0024 |
| PPPPPPPPPPPL | 0.677 ± 0.028 |
| PPPPPPPPPPTL | 0.712 ± 0.028 |
| PPPPPPPPRLTP | 0.754 ± 0.074 |
| PPPPPPPPRPLL | 0.787 ± 0.16 |

| Sequence | protein stability index |
| --- | --- |
| PPPPPPPPSSSL | 0.6819 ± 0.0041 |
| PPPPPPPSPLAP | 0.707 ± 0.015 |
| PPPPPPSPPLSP | 0.677 ± 0.028 |
| PPPPPPSPPPSP | 0.633 ± 0.044 |
| PPPPPPYHPTPP | 0.6685 ± 0.0011 |
| PPPPPRAPPLPP | 0.679 ± 0.029 |
| PPPPPRAPSLLA | 0.704 ± 0.03 |
| PPPPPRPSPRPS | 0.796 ± 0.013 |
| PPPPPSRPPPAL | 0.7405 ± 0.0049 |
| PPPPPSSPPALL | 0.663 ± 0.058 |
| PPPPPTFPVLTS | 0.603 ± 0.046 |
| PPPPPTLPSCLS | 0.689 ± 0.063 |
| PPPPPTRLPQNS | 0.694 ± 0.062 |
| PPPPRPLPSSNG | 0.76 ± 0.049 |
| PPPPRPPATPFP | 0.676 ± 0.052 |
| PPPPRPPPPATL | 0.662 ± 0.02 |
| PPPPRPPPVPPF | 0.61 ± 0.048 |
| PPPPRPPRDPPR | 0.6629 ± 0.00098 |
| PPPPRPSPPPPS | 0.694 ± 0.028 |
| PPPPRPSSPLIL | 0.741 ± 0.021 |
| PPPPRSSPSPLP | 0.668 ± 0.077 |
| PPPPRVLSPAWS | 0.649 ± 0.072 |
| PPPPSLAPRSAL | 0.724 ± 0.048 |
| PPPPSLLPPSPS | 0.702 ± 0.068 |
| PPPPSLPPPLPL | 0.698 ± 0.022 |
| PPPPSLVPPSPL | 0.677 ± 0.063 |

| Sequence | protein stability index |
| --- | --- |
| PPPPSPPSPPPP | 0.677 ± 0.0094 |
| PPPPSPRPRPAP | 0.657 ± 0.025 |
| PPPPSRLPYNPF | 0.662 ± 0.023 |
| PPPPTPLPPPHD | 0.652 ± 0.037 |
| PPPRPPLPPPPS | 0.727 ± 0.034 |
| PPPRPPSTTSPC | 0.7037 ± 0.0047 |
| PPPRPRPPPRPP | 0.581 ± 0.021 |
| PPPRPTHSRPGP | 0.64 ± 0.057 |
| PPPSHYHSQGHN | 0.686 ± 0.016 |
| PPPSPHRLDHLT | 0.704 ± 0.016 |
| PPPSPLPSPPPP | 0.5916 ± 0.0031 |
| PPPSPLPSPPPS | 0.746 ± 0.043 |
| PPPSPPLPIPPS | 0.697 ± 0.022 |
| PPPSPPSPLSPP | 0.675 ± 0.073 |
| PPPSSLVPFPLP | 0.7295 ± 0.0053 |
| PPPSSPTSGHSP | 0.771 ± 0.19 |
| PPPSTGGTRSNV | 0.6809 ± 0.0051 |
| PPPTLSPPPPPL | 0.75 ± 0.034 |
| PPPTPHPLRRTP | 0.735 ± 0.069 |
| PPPTPSPPPLPP | 0.5748 ± 0.0057 |
| PPPTPTFPVPPH | 0.6021 ± 0.00058 |
| PPPTSPPRPASP | 0.697 ± 0.059 |
| PPPVAPRSPAHL | 0.713 ± 0.074 |
| PPPVPPLPSPLP | 0.649 ± 0.022 |
| PPPVPPPSPPPT | 0.641 ± 0.07 |
| PPPVSLFSPRSL | 0.781 ± 0.099 |

| Sequence | protein stability index |
| --- | --- |
| PPQPTTPFPSPQ | 0.6788 ± 0.0063 |
| PPQRHTTPTSWG | 0.75862 ± 0.00034 |
| PPQTSVASRPTR | 0.695 ± 0.019 |
| PPRASPRMPAGC | 0.71506 ± 3.7e-05 |
| PPRGDPRAYLPP | 0.654 ± 0.011 |
| PPRNPAALPTPI | 0.718 ± 0.11 |
| PPRPLAPSPTLF | 0.679 ± 0.021 |
| PPRPLPPHPLLL | 0.681 ± 0.049 |
| PPRPLPPPRPSS | 0.691 ± 0.037 |
| PPRPLPPSLPPP | 0.695 ± 0.037 |
| PPRPPFPLPSPL | 0.703 ± 0.025 |
| PPRPPLHPLRLL | 0.6651 ± 0.0013 |
| PPRPPLPRPLPP | 0.657 ± 0.041 |
| PPRPPPNTPLPA | 0.725 ± 0.035 |
| PPRPPPPHHVPS | 0.677 ± 0.093 |
| PPRPPSSPLPPR | 0.733 ± 0.055 |
| PPRPSSRVPPPA | 0.65 ± 0.059 |
| PPRPTPLPHAPP | 0.681 ± 0.02 |
| PPRPTPYPPLPP | 0.674 ± 0.062 |
| PPRRPSFAPPHL | 0.704 ± 0.014 |
| PPRSIPLPSPFH | 0.741 ± 0.016 |
| PPRSPHLPRSSL | 0.664 ± 0.069 |
| PPSHGYPPRLIP | 0.67842 ± 0.00022 |
| PPSHPLSPLSRL | 0.722 ± 0.067 |
| PPSLPPPIHLPL | 0.646 ± 0.011 |
| PPSLPPSPPLPP | 0.694 ± 0.011 |

| Sequence | protein stability index |
| --- | --- |
| PPSLRFLLPPSA | 0.685 ± 0.058 |
| PPSPDATPLSHI | 0.678 ± 0.035 |
| PPSPHPSASTRP | 0.714 ± 0.04 |
| PPSPLPPTPSHS | 0.737 ± 0.076 |
| PPSPLPSPPPTF | 0.718 ± 0.025 |
| PPSPLYAFPYPL | 0.757 ± 0.0099 |
| PPSPPDSPPPAS | 0.665 ± 0.014 |
| PPSPPPPALSSS | 0.665 ± 0.056 |
| PPSPPPPLPLLP | 0.661 ± 0.077 |
| PPSPPPPLYPPA | 0.683 ± 0.038 |
| PPSPPPPPPFVP | 0.717 ± 0.033 |
| PPSPPPPPRFLP | 0.662 ± 0.041 |
| PPSPPPPPVVVP | 0.606 ± 0.11 |
| PPSPSLRSLPRP | 0.626 ± 0.064 |
| PPSPSPPPPPPT | 0.648 ± 0.04 |
| PPSRAPPAFPPL | 0.827 ± 0.2 |
| PPSVLLPLACPP | 0.677 ± 0.008 |
| PPSVPAPPLPDP | 0.675 ± 0.038 |
| PPTAPTYRQSQP | 0.6754 ± 0.001 |
| PPTFPHLPHSWP | 0.792 ± 0.018 |
| PPTHPPPRLTPL | 0.707 ± 0.081 |
| PPTIHPSPAAPH | 0.623 ± 0.062 |
| PPTPGPPPLRYP | 0.705 ± 0.068 |
| PPTPLIPPLPLH | 0.716 ± 0.043 |
| PPTPPLPPRLPP | 0.686 ± 0.0098 |
| PPTPPSIPPSPP | 0.624 ± 0.064 |

| Sequence | protein stability index |
| --- | --- |
| PPTPSPATSPPP | 0.713 ± 0.034 |
| PPTSPGPGSLYS | 0.693 ± 0.036 |
| PPTSPSNALPFA | 0.6666 ± 0.0032 |
| PPVLPPPAPLPP | 0.6548 ± 0.0047 |
| PPVRLLPCVCHF | 0.708 ± 0.049 |
| PPWLPAPFPLPD | 0.695 ± 0.045 |
| PPWPPYPRPPSS | 0.679 ± 0.053 |
| PPWTNALMILLD | 0.689 ± 0.039 |
| PPYPPTPHQTSH | 0.641 ± 0.034 |
| PPYSIPARAPHP | 0.7036 ± 0.0015 |
| PQFSPCRLALLS | 0.616 ± 0.018 |
| PQIRTPIPGSFS | 0.743 ± 0.074 |
| PQNTNNPENGHC | 0.667 ± 0.04 |
| PQPEAPSRPQLA | 0.746 ± 0.065 |
| PQRPPPALACPP | 0.703 ± 0.083 |
| PQSKWLTTFRQK | 0.713 ± 0.095 |
| PQSSGVSPIPPP | 0.77 ± 0.078 |
| PQSSLPPLSTSS | 0.686 ± 0.011 |
| PQTSRAPFPPPP | 0.7125 ± 0.0058 |
| PQVGWFCNRLEV | 0.836 ± 0.17 |
